In patent US20090291083A1, “BARB4 TARGET, ANTIBODY DESIGNATED BARB4, BARB4 RELATED ANTIBODIES, AND METHODS OF MAKING AND USING SAME” (PATRYS LIMITED, priority 2008, published 2009):

Tests used:
[1] = test system: Malignant Tissues: Colon; assay: Immunohistochemistry (IHC) with biotinylated BARB4 on malignant tissue; format: binding, human; details: positive/negative
Method: (§1) Immunohistochemistry with human IgG on human tissue naturally results in high background staining. Accordingly, BARB4 was labeled with biotin to reduce background.
(§2) BARB4 antibody and an unrelated commercial IgG control (Chrompure IgG, Dianova) where labelled with “EZ-Link Maleimide-PEO Solid Phase Biotinylation Kit” from Pierce (Cat-# 21930) and Immunohistochemistry was initiated on different tumor tissue. Parrafin embedded tissue was first deparaffinized by treatment with Xylene 1 for 5 min, Xylene 2 for 5 min, followed by 100% Ethanol 1 for 5 min, 100% Ethanol 2 for 5 min, 70 ml Methanol+500 μl H2O2 for 7 min, 90% Ethanol 1 for 3 min, 90% Ethanol 2 for 3 min, 80% Ethanol 1 for 3 min, 80% Ethanol 2 for 3 min, 70% Ethanol 1 for 3 min, 70% Ethanol 2 for 3 min, and then washed three times with distilled H2O. (1 and 2 mean that the tissues were treated 2 times with the same alcohol, one after the another, in two different tanks.) Tissue was then heated in Citric acid, pH 5,5 in a water-bath at 99.9° C. for 20 min, placed in Tris/NaCl (Tris, 0.6 g/l and NaCl 8.1 g/l, pH 7.4) for 5 min, block with 0.5% BSA in PBS for 60 min, and then washed three times with Tris/NaCl (Tris, 0.6 g/l and NaCl 8.1 g/l, pH 7.4). Primary antibody (150 μl per microscope slide) was added, or a negative control biotinylated isotype matched control human antibody (Chrompure IgG, Dianova, Germany) or a positive controlanti-cytokeratin antibody, and incubated for 30 min in a humidified chamber at 37° C. Tissue was washed three times with Tris/NaCl (Tris, 0.6 g/l and NaCl 8.1 g/l, pH 7.4). Secondary antibody: (150 […]) was subsequently added and incubated for 30 min in a humidified chamber at room temperature (for biotinylated antibodies: NeurtrAvidin 1:100 in PBS), washed three times with Tris/NaCl (Tris, 0.6 g/l and NaCl 8.1 g/l, pH7.4), placed in PBS for 10 min. Tiusse was subsequently incubated with diaminobenzidine (0.05%)-hydrogen peroxide (0.02%) (150 μl per microscope slide) (Sigma, Taufkirchen, München, Germany) for 10 min, washed three times with H2O, washed once with distilled H2O, incubated with hematoxylin/eosin for 5 min, and placed under running tap water 10-15 min. Tissue was then washed again with distilled H2O, and the slides covered with Aquatex (Merck Bioscience).

[2] = test system: Malignant Tissues: Melanoma; assay: as above; format: binding, human; details: Metastases of malignant melanoma, positive/negative
Method: as §1, §2

[3] = test system: BxPC-3; assay: MTT cell proliferation assay (Table 2); format: cell-based, human; details: for IC50, BA4 (24 hr): MTT 24 hr post-treatment; for IC50, BA4 (48 hr): MTT 48 hr post-treatment
Method: (§3) BARB4 was also evaluated for inhibition of proliferation of other cancer cell lines, including BxPC-3, COLO 205, H460, MDA-MB-231 and MIAPaCa-2 cells, as well as HT-29, HCT-116, BxPC-3, PANC-1, A549, PC-3 and HCT116 cells. In brief, various human cancer cell lines obtained from the American Type Culture Collection (ATCC) were established using standard in vitro culture methods and ATCC recommended media in 175 cm2 BD tissue culture treated flasks. In particular, MDAMB-231 cultures were incubated in a humidified 37° C., 100% air incubator, and BxPC-3, COLO 205, H460 and MIAPaCa-2 cultures were incubated in a humidified 37° C., 5% CO2, 95% air incubator. Cultures were sub-cultivated regularly to maintain log phase growth. All cell lines were brought up from cryopreservation using the original recommended ATCC media type and supplements. Cell line specific seeding densities were based on historical data from MIR Preclinical Services for growth over a 72 hr period.
(§4) On the day of IC50 plate seeding, the adherent cells were removed from the flasks for each cell line using trypsin EDTA, 1× (Cell Gro #25-053-CI). Trypsin was deactivated using complete media and the cells were pooled (each line done separately). The pooled cells in complete media were counted using trypan blue exclusion with a Neubauer Bright-Line® hemacytometer. The percent viability for each cell line was as follows:
(§5) Based on live cell counts, each suspension was then diluted in complete media (containing required supplements) to achieve the desired seeding density for each cell line. Once seeded, the cells were allowed to attach to the plates overnight and then treated with BA4 or cisplatin 24 hr post-seeding.
(§6) BARB4 was serially diluted 1:2 (2× final conc. in dilution reservoir=1600 μg/ml) in media to achieve a final 800 μg/ml starting concentration in the top dosage wells of the treatment plate by diluting 1:2 when transferred from the reservoir to the treatment plate. Antibody was added to columns 1 through 10 of the treatment plate. Column 11 was for cells+media only control and column 12 was for a media only blank. Cisplatin (positive control) was manufactured by Sigma (# M4394, lot 087K1349) and supplied as a fine, dark yellow powder, in an amber vial, stored at room temperature and housed in a covered box to prevent exposure to light. Cisplatin was previously dissolved in 0.9% saline to make a clear, colorless 4 mM stock solution, aliquoted and frozen at −20° C. Frozen aliquots were quickly thawed by holding the tubes in hand, placed on wet ice and diluted (2× conc. dilution reservoir) to achieve a final 1 mM starting concentration in the top dosage wells of the treatment plate (diluted 1:2 when transferred from the dilution reservoir to the treatment plate). Serial dilutions of 1:4 were made from wells 1 through 10 of the dilution reservoir prior to transfer to the treatment plate.
(§7) The BARB4 stock solution (10.5 mg/ml) was prepared by dilution in complete media according to the table below for a final starting treatment concentration of 800 μg/ml. The 4 mM stock solution of cisplatin in 0.9% saline was diluted in complete media for a final starting treatment concentration of 1 mM.
(§8) Cells were exposed to BARB4 or cisplatin for a 24 hr period. The plates were incubated overnight at 37° C. At 24 hr and 48 hr post-treatment, the MTT assay was performed as described below.
(§9) The anti-proliferative activity of BARB4 and cisplatin was evaluated using the MTT cell proliferation assay (ATCC catalog #30-1010K). The assay is based on the reduction of yellow tetrazolium MTT (3-(4,5-dimethylthiazolyl-2)-2,5-diphenyltetrazolium bromide) by metabolically active cells forming purple formazan crystals. […]

[4] = test system: COLO 205; assay: MTT cell proliferation assay (Table 2); format: cell-based, human; details: EC50
Method: as §3, §4, §5, §6, §7, §8, §9

[5] = test system: H460; assay: MTT cell proliferation assay (Table 2); format: cell-based, human; details: EC50
Method: as §3, §4, §5, §6, §7, §8, §9

[6] = test system: MDA-MB-231; assay: MTT cell proliferation assay (Table 2); format: cell-based, human; details: EC50
Method: as §3, §4, §5, §6, §7, §8, §9

[7] = test system: MIAPaCa-2; assay: MTT cell proliferation assay (Table 2); format: cell-based, human; details: EC50
Method: as §3, §4, §5, §6, §7, §8, §9

[8] = BxPC-3, b280: really EC50 of total observed effect

B1: BARB4: human IgG antibody produced by hybridoma DSMZ Deposit No. DSM ACC2876; heavy chain SEQ ID NOs:1, 3, 5, 7, light chain SEQ ID NO:9 (antibody, V domains shown)
VH: QVQLVESGGGVVQPGRSLRLSCAASGFRFTTHGMHWVRQAPGKGLEWVAVISYNGRNKYYADYVNGRFTISRDDSRDTVFLQMNSLRPEDTAMYYCAKVRGDGYGDYGYFDYWGHGTLVSVSS
VL: QSALTQPRSVSGSPGQSVTISCTGTYNYVSWYQQHPGKAPKLMIFDVSRRSSGVPDRFSGSKSGNTASLTISGLQAEDEADYYCCSYGGTYLYVFGTGTTVTVLGQ
- Barb 4 +/− ([1]; Adeno): 1/0
- Barb 4 +/− ([1]; Liver Metastasis): 2/0
- Barb 4 +/− [2]: 5/0
- IC50, BA4 (24 hr) [3, 8]: >800 µg/mL
- IC50, BA4 (48 hr) [3, 8]: >800 µg/mL
- IC50, BA4 (24 hr) ([3]; BxPC-3 repeat, EC50): >800 µg/mL
- IC50, BA4 (48 hr) ([3]; BxPC-3 repeat, EC50): >800 µg/mL
- IC50, BA4 (24 hr) ([4]; MTT 24 hr post-treatment): 66.8 µg/mL
- IC50, BA4 (48 hr) ([4]; MTT 48 hr post-treatment): 2.78 µg/mL
- IC50, BA4 (24 hr) ([5]; MTT 24 hr post-treatment): 413 µg/mL
- IC50, BA4 (48 hr) ([5]; MTT 48 hr post-treatment): >800 µg/mL
- IC50, BA4 (24 hr) ([6]; MTT 24 hr post-treatment): 154 µg/mL
- IC50, BA4 (48 hr) ([6]; MTT 48 hr post-treatment): 193 µg/mL
- IC50, BA4 (24 hr) ([7]; MTT 24 hr post-treatment): 34.9 µg/mL
- IC50, BA4 (48 hr) ([7]; MTT 48 hr post-treatment): 21.1 µg/mL
